The source of these data is doi:10.1101/2020.06.12.148387.

This test has as its target SARS-CoV-2 Spike ectodomain (pre-fusion, with proline mutations) (SARS-CoV-2) (UniProt P0DTC2).

EY6A IgG (antibody) yielded a plaque reduction neutralisation test (Oxford), SARS-CoV-2, ND50 of 30 µg/mL.
